Test [1] can be described thus: NADH Production Assay (oxidation of 4-octanol). Particulars: NAD+, 30° C., FIG. 30A. The class given is biochemical. The protocol: Various secondary alcohol dehydrogenases (2ADHs) were isolated from Pseudomonas putida KT2440, Pseudomonas fluorescens Pf-5, and Klebsiella pneumoniae MGH 78578. All vectors were transformed in BL21(DE3) competent cells and expression of the genes encoding the proteins of interest was induced with IPTG (via the T7 promoter). The cells were lysed, proteins were extracted and then purified on Ni-NTA columns. Final protein concentration in the Ni-NTA eluate was diluted to 0.15 mg/mL prior to assays.
[…] consumption and production assays were performed using a THERMOmax microplate reader in the kinetic mode, monitoring the NADPH absorbance peak at 340 nm until the reaction reached equilibrium. […] These reaction conditions are found in Table 4 below.

The nature of test [2]: Kinetic testing of oxidation and reduction reactions with 2ADH-16. The class given is biochemical. To be noted: 0.04 mg/mL enzyme, pH 6.5(red) or 9.0(ox), 25 C, FIGS. 35 and 36. The protocol: Similar to above, kinetic testing for both oxidation and reduction reactions was performed on various substrates using 2ADH-16. The conditions for these studies were as follows: 0.04 mg/mL enzyme, 0.25 mg/mL cofactor, 20 mM Tris HCl Buffer pH 6.5(red) or 9.0(ox), T=25 C, 100 uL total volume was used.

These results are taken from patent US20090155873A1, “BIOFUEL PRODUCTION” (BIO ARCHITECTURE LAB, INC., priority 2007, published 2009).

B1: 2ADH-2: secondary alcohol dehydrogenase isolated from Pseudomonas putida KT2440, SEQ ID NO:112 (protein)
chain: MSMTFSGQVALVTGAGAGIGRATALAFAHEGMKVVVADLDPVGGEATVAQIHAAGGEALFIACDVTRDAEVRQLHERLMAAYGRLDYAFNNAGIEIEQHRLAEGSEAEFDAIMGVNVKGVWLCMKYQLPLLLAQGGGAIVNTASVAGLGAAPKMSIYSASKHAVIGLTKSAAIEYAKKGIRVNAVCPAVIDTDMFRRAYQADPRKAEFAAAMHPVGRIGKVEEIASAVLYLCSDGAAFTTGHCLTVDGGATAI
modifications: Pseudomonas putida KT2440
Take B1: in test [1], the “oxidation of 4-octanol measured by NADH production” value is reported as “catalyzes the oxidation of 4-octanol in the presence of NAD+”.

B2: 2ADH-16: secondary alcohol dehydrogenase isolated from Klebsiella pneumoniae subsp. pneumoniae MGH 78578, SEQ ID NO:138 (protein)
chain: MTAFHNKSVLVLGGSRGIGAAIVRRFVADGASVVFSYSGSPEAAERLAAETGSTAVQADSADRDAVISLVRDSGPLDVLVVNAGIALFGDALEQDSDAIDRLFHINIHAPYHASVEAARRMPEGGRIIVIGSVNGDRMPLPGMAAYALSKSALQGLARGLARDFGPRGITVNVVQPGPIDTDANPENGPMKELMHSFMAIKRHGRPEEVAGMVAWLAGPEASFVTGAMHTIDGAFGA
modifications: Klebsiella pneumoniae subsp. pneumoniae MGH78578
Consider B2, for which the “oxidation and reduction of various substrates” value in test [2] was “capable of catalyzing both the oxidation and reduction of a wide variety of substrates”.
